The values that follow are results of earlier work, collected in publication PMC3985698.

This data set addresses Bad (Homo sapiens) (UniProt Q92934). The conditions noted are these: cited from earlier work.
Chain of UniProt Q92934 (Q92934 whole entry): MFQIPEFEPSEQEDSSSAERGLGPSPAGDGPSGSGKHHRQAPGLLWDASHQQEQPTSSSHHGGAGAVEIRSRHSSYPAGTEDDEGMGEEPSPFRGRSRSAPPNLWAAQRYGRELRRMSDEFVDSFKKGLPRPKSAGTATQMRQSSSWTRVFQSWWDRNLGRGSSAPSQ

In the case of Bcl-xL (from UniProt Q07817), the Kd was 0.6 nM.
